Source: paper PMC3323580, “Lack of Evidence from Studies of Soluble Protein Fragments that Knops Blood Group Polymorphisms in Complement Receptor-Type 1 Are Driven by Malaria” (PLoS ONE, 2012)

Biological target: T1, C1q, classical complement pathway protein (UniProt P02745 23-245; P02746 28-253; P02747 29-245)
T1 construct: Amine-coupled to a CM5 chip for SPR; in solution (140 ng/ml) for ELISA; source: bought: Complement Technology (Texas)
Assay: SPR; C3b (1620 RU), C4b (1518 RU) and C1q (2125 RU) amine-coupled on three flow cells of one CM5 chip; CR1 fragments flowed at 30 µl/min, Biacore T100, 25°C, HBS-EP pH 7.4 (10 mM Hepes, 150 mM saline, 3 mM EDTA, 0.05% polysorbate 20); steady-state fit, one-to-one model; duplicates
Conditions: both partners purified

T1 sequence (P02745 23-245, chain 1 of 3): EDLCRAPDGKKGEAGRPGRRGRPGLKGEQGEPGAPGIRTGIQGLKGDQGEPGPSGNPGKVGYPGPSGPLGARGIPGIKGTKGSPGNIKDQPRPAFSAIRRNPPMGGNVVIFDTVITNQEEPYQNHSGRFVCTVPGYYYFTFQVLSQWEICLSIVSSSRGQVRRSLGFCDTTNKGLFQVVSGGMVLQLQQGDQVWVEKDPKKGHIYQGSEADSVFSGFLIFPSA
T1 sequence (P02746 28-253, chain 2 of 3): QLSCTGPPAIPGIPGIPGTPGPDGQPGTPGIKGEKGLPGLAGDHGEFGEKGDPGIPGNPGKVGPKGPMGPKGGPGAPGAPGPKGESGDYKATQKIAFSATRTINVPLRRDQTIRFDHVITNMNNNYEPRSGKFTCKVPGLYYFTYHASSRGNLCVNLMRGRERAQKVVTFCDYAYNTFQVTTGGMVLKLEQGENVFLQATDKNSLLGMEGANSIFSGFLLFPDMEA
T1 sequence (P02747 29-245, chain 3 of 3): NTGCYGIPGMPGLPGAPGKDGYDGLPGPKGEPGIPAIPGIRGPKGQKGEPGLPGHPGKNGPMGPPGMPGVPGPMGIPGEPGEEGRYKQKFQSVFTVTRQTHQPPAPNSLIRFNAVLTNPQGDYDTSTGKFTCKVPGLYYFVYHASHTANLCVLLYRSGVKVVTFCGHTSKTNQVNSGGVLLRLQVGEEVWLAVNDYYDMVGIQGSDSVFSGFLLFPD

B1: soluble CR1 (sCR1), full-length ectodomain of complement receptor-type 1 (receptor)
chain: not shown
notes: complement receptor-type 1 (CR1, CD35), human, soluble full-length ectodomain; also called full-length sCR1; source: a gift from Henry Marsh, Celdex Pharmaceuticals
B1 gave a Kd of 8 ± 1 µM.
